Experimental data as given in patent US20200181617, “CHEMICALLY MODIFIED RNA APTAMERS AND USES THEREOF” (ALBERT EINSTEIN COLLEGE OF MEDICINE, published 2020).

Molecular target: T1, LRIG1 (UniProt Q96JA1 Q96JA1:35-794)
T1 sequence: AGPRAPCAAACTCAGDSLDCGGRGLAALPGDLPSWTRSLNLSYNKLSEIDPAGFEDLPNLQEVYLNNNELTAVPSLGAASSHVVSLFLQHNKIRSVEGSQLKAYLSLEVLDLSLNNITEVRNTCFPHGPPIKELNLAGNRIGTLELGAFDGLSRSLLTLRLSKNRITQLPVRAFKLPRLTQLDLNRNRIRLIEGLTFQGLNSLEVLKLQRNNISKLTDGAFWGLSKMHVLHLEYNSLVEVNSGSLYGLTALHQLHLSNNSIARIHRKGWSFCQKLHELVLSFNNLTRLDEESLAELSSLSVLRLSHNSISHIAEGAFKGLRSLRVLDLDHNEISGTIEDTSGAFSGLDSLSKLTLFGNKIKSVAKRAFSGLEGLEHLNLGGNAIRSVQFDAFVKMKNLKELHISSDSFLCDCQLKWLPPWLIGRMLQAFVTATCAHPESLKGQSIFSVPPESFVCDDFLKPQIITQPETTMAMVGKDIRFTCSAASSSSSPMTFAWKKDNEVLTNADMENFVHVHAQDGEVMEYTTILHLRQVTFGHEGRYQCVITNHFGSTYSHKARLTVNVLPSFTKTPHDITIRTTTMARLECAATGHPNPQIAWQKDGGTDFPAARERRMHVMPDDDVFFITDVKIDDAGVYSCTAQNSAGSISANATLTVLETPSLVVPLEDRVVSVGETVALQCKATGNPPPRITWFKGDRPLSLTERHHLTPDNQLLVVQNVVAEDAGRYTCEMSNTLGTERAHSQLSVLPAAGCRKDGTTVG
Experiment: flow; apparent; protein on Dynal His beads; no signal on non-protein beads
Settings: tags: His-tagged, immobilized on magnetic His-capture beads (Dynal His beads)
Method: Using a N40 library containing ˜10″ unique sequences, transcribed using a mixture of Phe-dUTP, 2′OMe ATP, 2′OMe CTP and 2′F GTP, SELEX was initiated against the protein LRIG1. In short, the His-tagged protein was immobilized on 1 μm, magnetic His-capture beads and incubated with the library for 30 minutes at 37° C. after which the beads were washed 3 times with buffer, and then any bound library molecules eluted by the addition of wash buffer containing the denaturant guanidine hydrochloride (4M). Following elution the library molecules were recovered by ethanol precipitation and reverse transcribed into DNA using SSIV under optimized conditions (2M betaine). The resulting ssDNA was then amplified by PCR and the resulting dsDNA then transcribed back in to modified RNA by transcription using the LAL-polymerase and a mixture of Phe-dUTP, 2′OMe ATP, 2′OMe CTP and 2′F GTP under the present optimized conditions. The process was repeated for 8 rounds of selection. A fluorescently labeled library was used to monitor the selection by flow cytometry. […] Importantly, when similar experiments were performed using non-protein target loaded beads, no signal over background was observed. […] Subsequent experiments were carried out to clone and sequence the round 6, 7 and 8 population and test individual molecules identified from the screen. […]

B1: Lrig1-Rd8-08 (clone 8) (XNA)
DNA: GGGAAGGAGAGACGACGCGACACCCCCTTGAGTCACAGGTGTGTGAGCGCCGACGGCTTGGTACAGCAGACAAGACCGGACAAGAAGC
modifications: 2'-F G; 2'-OMe A; 2'-OMe C; all T positions are 5-modified dU (Phe-dU)
Work on B1 yielded a Kd of roughly 25 nM.

B2: Lrig1-Rd8-11 (clone 11) (XNA)
DNA: GGGAAGGAGAGACGACGCGACACCCGCTTCACCGCTGTGTAACTGCGACGACGGACGTCAGATCAGCAGACAAGACCGGACAAGAAGC
modifications: 2'-F G; 2'-OMe A; 2'-OMe C; all T positions are 5-modified dU (Phe-dU)
B2 gave a Kd of roughly 35 nM.
